Earlier results, collected in patent publication EP1666054A1, “Method for administering insulinotropic peptides” (priority 1998, dated 2006).

Conditions: pulmonary delivery; calculated, background statement

**Q.** Which “Absorption values (delivered through the lungs)” value does the source give for parathyroid hormone (1-34) here?
**A.** fifteen
